Laboratory results reported in the supplement of paper PMC11811203.

B1: THAP1; numbered along this chain (parent)
chain: MVQSCSAYGCKNRYDKDKPVSFHKFPLTRPSLCKEWEAAVRRKNFKPTKYSSICSEHFTPDCFKRECNNKLLKENAVPTIFLCTEPHDKKEDLLEPQEQLPPPPLPPPVSQVDAAIGLLMPPLQTPVNLSVFCDHNYTVEDTMHQRKRIHQLEQQVEKLRKKLKTAQQRCRRQERQLEKLKEVVHFQKEKDDVSERGYVILPNDYFEIVEVPA

Variants of: B1
Assay: THAP1 transcriptional activity (GFP+/GFP- enrichment relative to wild-type constructs) (ratio to WT); higher = more THAP1 activity (PSMB5 reporter activation)
Conditions: with PSMB5 promoter-GFP reporter
Protocol: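 Deep mutational scan of human THAP1. Site-saturation single amino acid variant library (residues 2-213) was expressed by lentivirus at MOI ~0.3 in THAP1-knockout HEK-293T cells carrying an endogenous PSMB5 promoter-GFP knock-in reporter. Five days post-transduction, BFP+ cells were FACS-sorted into GFP dim and GFP bright populations and variants were counted by Illumina sequencing. Activity is the GFP-bright/GFP-dim read fold change, mean of 2 replicates, divided by the mean fold change of wild-type (synonymous) constructs in the same screen pool; WT = 1.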

| Variant | THAP1 transcriptional activity |
| --- | --- |
| MCQSCSAYGCKNRYDKDKPVSFHKFPLTRPSLCKEWEAAVRRKNFKPTKYSSICSEHFTPDCFKRECNNKLLKENAVPTIFLCTEPHDKKEDLLEPQEQLPPPPLPPPVSQVDAAIGLLMPPLQTPVNLSVFCDHNYTVEDTMHQRKRIHQLEQQVEKLRKKLKTAQQRCRRQERQLEKLKEVVHFQKEKDDVSERGYVILPNDYFEIVEVPA [V2C] | 0.162 |
| MDQSCSAYGCKNRYDKDKPVSFHKFPLTRPSLCKEWEAAVRRKNFKPTKYSSICSEHFTPDCFKRECNNKLLKENAVPTIFLCTEPHDKKEDLLEPQEQLPPPPLPPPVSQVDAAIGLLMPPLQTPVNLSVFCDHNYTVEDTMHQRKRIHQLEQQVEKLRKKLKTAQQRCRRQERQLEKLKEVVHFQKEKDDVSERGYVILPNDYFEIVEVPA [V2D] | 0.178 |
| MEQSCSAYGCKNRYDKDKPVSFHKFPLTRPSLCKEWEAAVRRKNFKPTKYSSICSEHFTPDCFKRECNNKLLKENAVPTIFLCTEPHDKKEDLLEPQEQLPPPPLPPPVSQVDAAIGLLMPPLQTPVNLSVFCDHNYTVEDTMHQRKRIHQLEQQVEKLRKKLKTAQQRCRRQERQLEKLKEVVHFQKEKDDVSERGYVILPNDYFEIVEVPA [V2E] | 0.154 |
| MFQSCSAYGCKNRYDKDKPVSFHKFPLTRPSLCKEWEAAVRRKNFKPTKYSSICSEHFTPDCFKRECNNKLLKENAVPTIFLCTEPHDKKEDLLEPQEQLPPPPLPPPVSQVDAAIGLLMPPLQTPVNLSVFCDHNYTVEDTMHQRKRIHQLEQQVEKLRKKLKTAQQRCRRQERQLEKLKEVVHFQKEKDDVSERGYVILPNDYFEIVEVPA [V2F] | 0.161 |
| MGQSCSAYGCKNRYDKDKPVSFHKFPLTRPSLCKEWEAAVRRKNFKPTKYSSICSEHFTPDCFKRECNNKLLKENAVPTIFLCTEPHDKKEDLLEPQEQLPPPPLPPPVSQVDAAIGLLMPPLQTPVNLSVFCDHNYTVEDTMHQRKRIHQLEQQVEKLRKKLKTAQQRCRRQERQLEKLKEVVHFQKEKDDVSERGYVILPNDYFEIVEVPA [V2G] | 0.0831 |
| MHQSCSAYGCKNRYDKDKPVSFHKFPLTRPSLCKEWEAAVRRKNFKPTKYSSICSEHFTPDCFKRECNNKLLKENAVPTIFLCTEPHDKKEDLLEPQEQLPPPPLPPPVSQVDAAIGLLMPPLQTPVNLSVFCDHNYTVEDTMHQRKRIHQLEQQVEKLRKKLKTAQQRCRRQERQLEKLKEVVHFQKEKDDVSERGYVILPNDYFEIVEVPA [V2H] | 0.247 |
| MIQSCSAYGCKNRYDKDKPVSFHKFPLTRPSLCKEWEAAVRRKNFKPTKYSSICSEHFTPDCFKRECNNKLLKENAVPTIFLCTEPHDKKEDLLEPQEQLPPPPLPPPVSQVDAAIGLLMPPLQTPVNLSVFCDHNYTVEDTMHQRKRIHQLEQQVEKLRKKLKTAQQRCRRQERQLEKLKEVVHFQKEKDDVSERGYVILPNDYFEIVEVPA [V2I] | 0.157 |
| MKQSCSAYGCKNRYDKDKPVSFHKFPLTRPSLCKEWEAAVRRKNFKPTKYSSICSEHFTPDCFKRECNNKLLKENAVPTIFLCTEPHDKKEDLLEPQEQLPPPPLPPPVSQVDAAIGLLMPPLQTPVNLSVFCDHNYTVEDTMHQRKRIHQLEQQVEKLRKKLKTAQQRCRRQERQLEKLKEVVHFQKEKDDVSERGYVILPNDYFEIVEVPA [V2K] | 0.0614 |
| MLQSCSAYGCKNRYDKDKPVSFHKFPLTRPSLCKEWEAAVRRKNFKPTKYSSICSEHFTPDCFKRECNNKLLKENAVPTIFLCTEPHDKKEDLLEPQEQLPPPPLPPPVSQVDAAIGLLMPPLQTPVNLSVFCDHNYTVEDTMHQRKRIHQLEQQVEKLRKKLKTAQQRCRRQERQLEKLKEVVHFQKEKDDVSERGYVILPNDYFEIVEVPA [V2L] | 0.214 |
| MMQSCSAYGCKNRYDKDKPVSFHKFPLTRPSLCKEWEAAVRRKNFKPTKYSSICSEHFTPDCFKRECNNKLLKENAVPTIFLCTEPHDKKEDLLEPQEQLPPPPLPPPVSQVDAAIGLLMPPLQTPVNLSVFCDHNYTVEDTMHQRKRIHQLEQQVEKLRKKLKTAQQRCRRQERQLEKLKEVVHFQKEKDDVSERGYVILPNDYFEIVEVPA [V2M] | 0.183 |
| MNQSCSAYGCKNRYDKDKPVSFHKFPLTRPSLCKEWEAAVRRKNFKPTKYSSICSEHFTPDCFKRECNNKLLKENAVPTIFLCTEPHDKKEDLLEPQEQLPPPPLPPPVSQVDAAIGLLMPPLQTPVNLSVFCDHNYTVEDTMHQRKRIHQLEQQVEKLRKKLKTAQQRCRRQERQLEKLKEVVHFQKEKDDVSERGYVILPNDYFEIVEVPA [V2N] | 0.157 |
| MPQSCSAYGCKNRYDKDKPVSFHKFPLTRPSLCKEWEAAVRRKNFKPTKYSSICSEHFTPDCFKRECNNKLLKENAVPTIFLCTEPHDKKEDLLEPQEQLPPPPLPPPVSQVDAAIGLLMPPLQTPVNLSVFCDHNYTVEDTMHQRKRIHQLEQQVEKLRKKLKTAQQRCRRQERQLEKLKEVVHFQKEKDDVSERGYVILPNDYFEIVEVPA [V2P] | 0.71 |
| MQQSCSAYGCKNRYDKDKPVSFHKFPLTRPSLCKEWEAAVRRKNFKPTKYSSICSEHFTPDCFKRECNNKLLKENAVPTIFLCTEPHDKKEDLLEPQEQLPPPPLPPPVSQVDAAIGLLMPPLQTPVNLSVFCDHNYTVEDTMHQRKRIHQLEQQVEKLRKKLKTAQQRCRRQERQLEKLKEVVHFQKEKDDVSERGYVILPNDYFEIVEVPA [V2Q] | 0.178 |
| MRQSCSAYGCKNRYDKDKPVSFHKFPLTRPSLCKEWEAAVRRKNFKPTKYSSICSEHFTPDCFKRECNNKLLKENAVPTIFLCTEPHDKKEDLLEPQEQLPPPPLPPPVSQVDAAIGLLMPPLQTPVNLSVFCDHNYTVEDTMHQRKRIHQLEQQVEKLRKKLKTAQQRCRRQERQLEKLKEVVHFQKEKDDVSERGYVILPNDYFEIVEVPA [V2R] | 0.122 |
| MSQSCSAYGCKNRYDKDKPVSFHKFPLTRPSLCKEWEAAVRRKNFKPTKYSSICSEHFTPDCFKRECNNKLLKENAVPTIFLCTEPHDKKEDLLEPQEQLPPPPLPPPVSQVDAAIGLLMPPLQTPVNLSVFCDHNYTVEDTMHQRKRIHQLEQQVEKLRKKLKTAQQRCRRQERQLEKLKEVVHFQKEKDDVSERGYVILPNDYFEIVEVPA [V2S] | 0.297 |
| MTQSCSAYGCKNRYDKDKPVSFHKFPLTRPSLCKEWEAAVRRKNFKPTKYSSICSEHFTPDCFKRECNNKLLKENAVPTIFLCTEPHDKKEDLLEPQEQLPPPPLPPPVSQVDAAIGLLMPPLQTPVNLSVFCDHNYTVEDTMHQRKRIHQLEQQVEKLRKKLKTAQQRCRRQERQLEKLKEVVHFQKEKDDVSERGYVILPNDYFEIVEVPA [V2T] | 0.21 |
| MWQSCSAYGCKNRYDKDKPVSFHKFPLTRPSLCKEWEAAVRRKNFKPTKYSSICSEHFTPDCFKRECNNKLLKENAVPTIFLCTEPHDKKEDLLEPQEQLPPPPLPPPVSQVDAAIGLLMPPLQTPVNLSVFCDHNYTVEDTMHQRKRIHQLEQQVEKLRKKLKTAQQRCRRQERQLEKLKEVVHFQKEKDDVSERGYVILPNDYFEIVEVPA [V2W] | 0.109 |
| MYQSCSAYGCKNRYDKDKPVSFHKFPLTRPSLCKEWEAAVRRKNFKPTKYSSICSEHFTPDCFKRECNNKLLKENAVPTIFLCTEPHDKKEDLLEPQEQLPPPPLPPPVSQVDAAIGLLMPPLQTPVNLSVFCDHNYTVEDTMHQRKRIHQLEQQVEKLRKKLKTAQQRCRRQERQLEKLKEVVHFQKEKDDVSERGYVILPNDYFEIVEVPA [V2Y] | 0.16 |
| MVASCSAYGCKNRYDKDKPVSFHKFPLTRPSLCKEWEAAVRRKNFKPTKYSSICSEHFTPDCFKRECNNKLLKENAVPTIFLCTEPHDKKEDLLEPQEQLPPPPLPPPVSQVDAAIGLLMPPLQTPVNLSVFCDHNYTVEDTMHQRKRIHQLEQQVEKLRKKLKTAQQRCRRQERQLEKLKEVVHFQKEKDDVSERGYVILPNDYFEIVEVPA [Q3A] | 0.849 |
| MVCSCSAYGCKNRYDKDKPVSFHKFPLTRPSLCKEWEAAVRRKNFKPTKYSSICSEHFTPDCFKRECNNKLLKENAVPTIFLCTEPHDKKEDLLEPQEQLPPPPLPPPVSQVDAAIGLLMPPLQTPVNLSVFCDHNYTVEDTMHQRKRIHQLEQQVEKLRKKLKTAQQRCRRQERQLEKLKEVVHFQKEKDDVSERGYVILPNDYFEIVEVPA [Q3C] | 0.269 |
| MVDSCSAYGCKNRYDKDKPVSFHKFPLTRPSLCKEWEAAVRRKNFKPTKYSSICSEHFTPDCFKRECNNKLLKENAVPTIFLCTEPHDKKEDLLEPQEQLPPPPLPPPVSQVDAAIGLLMPPLQTPVNLSVFCDHNYTVEDTMHQRKRIHQLEQQVEKLRKKLKTAQQRCRRQERQLEKLKEVVHFQKEKDDVSERGYVILPNDYFEIVEVPA [Q3D] | 0.119 |
| MVESCSAYGCKNRYDKDKPVSFHKFPLTRPSLCKEWEAAVRRKNFKPTKYSSICSEHFTPDCFKRECNNKLLKENAVPTIFLCTEPHDKKEDLLEPQEQLPPPPLPPPVSQVDAAIGLLMPPLQTPVNLSVFCDHNYTVEDTMHQRKRIHQLEQQVEKLRKKLKTAQQRCRRQERQLEKLKEVVHFQKEKDDVSERGYVILPNDYFEIVEVPA [Q3E] | 0.155 |
| MVFSCSAYGCKNRYDKDKPVSFHKFPLTRPSLCKEWEAAVRRKNFKPTKYSSICSEHFTPDCFKRECNNKLLKENAVPTIFLCTEPHDKKEDLLEPQEQLPPPPLPPPVSQVDAAIGLLMPPLQTPVNLSVFCDHNYTVEDTMHQRKRIHQLEQQVEKLRKKLKTAQQRCRRQERQLEKLKEVVHFQKEKDDVSERGYVILPNDYFEIVEVPA [Q3F] | 0.143 |
| MVGSCSAYGCKNRYDKDKPVSFHKFPLTRPSLCKEWEAAVRRKNFKPTKYSSICSEHFTPDCFKRECNNKLLKENAVPTIFLCTEPHDKKEDLLEPQEQLPPPPLPPPVSQVDAAIGLLMPPLQTPVNLSVFCDHNYTVEDTMHQRKRIHQLEQQVEKLRKKLKTAQQRCRRQERQLEKLKEVVHFQKEKDDVSERGYVILPNDYFEIVEVPA [Q3G] | 0.159 |
| MVHSCSAYGCKNRYDKDKPVSFHKFPLTRPSLCKEWEAAVRRKNFKPTKYSSICSEHFTPDCFKRECNNKLLKENAVPTIFLCTEPHDKKEDLLEPQEQLPPPPLPPPVSQVDAAIGLLMPPLQTPVNLSVFCDHNYTVEDTMHQRKRIHQLEQQVEKLRKKLKTAQQRCRRQERQLEKLKEVVHFQKEKDDVSERGYVILPNDYFEIVEVPA [Q3H] | 1.01 |
| MVISCSAYGCKNRYDKDKPVSFHKFPLTRPSLCKEWEAAVRRKNFKPTKYSSICSEHFTPDCFKRECNNKLLKENAVPTIFLCTEPHDKKEDLLEPQEQLPPPPLPPPVSQVDAAIGLLMPPLQTPVNLSVFCDHNYTVEDTMHQRKRIHQLEQQVEKLRKKLKTAQQRCRRQERQLEKLKEVVHFQKEKDDVSERGYVILPNDYFEIVEVPA [Q3I] | 0.678 |
| MVKSCSAYGCKNRYDKDKPVSFHKFPLTRPSLCKEWEAAVRRKNFKPTKYSSICSEHFTPDCFKRECNNKLLKENAVPTIFLCTEPHDKKEDLLEPQEQLPPPPLPPPVSQVDAAIGLLMPPLQTPVNLSVFCDHNYTVEDTMHQRKRIHQLEQQVEKLRKKLKTAQQRCRRQERQLEKLKEVVHFQKEKDDVSERGYVILPNDYFEIVEVPA [Q3K] | 0.266 |
| MVLSCSAYGCKNRYDKDKPVSFHKFPLTRPSLCKEWEAAVRRKNFKPTKYSSICSEHFTPDCFKRECNNKLLKENAVPTIFLCTEPHDKKEDLLEPQEQLPPPPLPPPVSQVDAAIGLLMPPLQTPVNLSVFCDHNYTVEDTMHQRKRIHQLEQQVEKLRKKLKTAQQRCRRQERQLEKLKEVVHFQKEKDDVSERGYVILPNDYFEIVEVPA [Q3L] | 0.354 |
